Experimental findings from a protein production outcome set (Wang et al. 2014) are described below.
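Further: failed if final PepcDB status was selected cloned or expressed and not failed if soluble or beyond.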

The data set is described as follows: label from the status in PepcDB records.
As to “MCNDTATPQLEELVTTVANQLMTVDAATSAEVSQRVLAYLVEQLGVDVSFLRHNDRDRRATRLVAEWPPRLNIPDPDPLRLIYFADADPVFALCEHAKEPLVFRPEPATEDYQRLIEEARGVPVTSAAAVPLVSGEITTGLLGFIKFGDRKWHEAELNALMTIATLFAQVQARVAAEARLRYLADHDDLTGLHNRRALLQHLDQRLAPGQPGPVAALFLDLDRLKAINDYLGHAAGDQFIHVFAQRIGDALVGESLIARLGGDEFVLIPASPMSADAAQPLAERLRDQLKDHVAIGGEVLTRTVSIGVASGTPGQHTPSDLLRRADQAALAAKHAGGDSVAIFTADMSVSGELRNDIELHLRRGIESDALRLVYLPEVDLRTGDIVGTEALVRWQHPTRGLLAPGCFIPVAESINLAGELDRWVLRRACNEFSEWQSAGLGHDALLRINVSAGQLVTGGFVDFVADTIGQHGLDASSVCLEITENVVVQDLHTARATLARLKEVGVHIAIDDFGTGYSAISLLQTLPIDTLKIDKTFVRQLGTNTSDLVIVRGIMTLAEGFQLDVVAEGVETEAAARILLDQRCYRAQGFLFSRPVPGEAMRHMLSARRLPPTCIPATDPALS”, the protein production entry was “failed”.
In the case of “MCRKRYKKQNLGVSKNMLEGHENKVSGVYEKNRSAGYEKEILKPKNVWEEFFADKRSGGHRSSAEEFLAMEAKEKLFHLDGGKILLDFGCGAGELLVYYAQEYEKTIGVDFSPSMLEEASKRIRERNCKNTTLILADDKIVWDKLDSSFDRITAAGVFQYLTYQKIDDFIFNASKHLNEGGKIVLFDMLDPRLYPLWKMGLFSQDKSCRKILSKAVCGVKNSISASLKRRPRDILGYSHYPNKIKKIANKNGFEMICVQSMYYEYKYHAIIFRS”, the protein production entry is reported as “failed”.
Turning to “MCSIGVTALCSPAKFHHRREQSLIFTPTHLRNPNGFQFRWRKSRPFAPRLAQPDNFAPPLPLIRSSTSLLSSKDFVQMLARKAAILLVGSFVFLGFCSSKPALALPTATVVSQAELEDEKMFEKLLENEPENMEAMKAVVYKKMRRGKNEDAVKYVEKLMKLEPHEVEWKLLEALCYETMGELSKAKRLYKDILKEQPLLIRALHGLAMVMHKTHDTSVFDMLIEAMEVARQGNRVTEERNIQVLIGQMHIVEGQFEEGLKIFQQMVNDNPRDFRPYLCQGIVYSLMDKKEEAAQQFEIYWSLVPGEFPQKGFLDDVALAAQAKSRERLQNTFKAKFTQGR”, the protein production entry is on record as “failed”.
In the case of “MCTKNETKPLPSFIEERLNFHIQDLIKSNENQKHLVLGKRPSENAVVMQSNDYLSLSHNELIQKAHRDAISERDDNVVMSAIFLQDDQSKPAFEHQLATFVGMESCLLSQSGWAANIGLLQTICAPNLPVYIDFFAHMSLWEGARTAGAQIHPFMHNNMNHLRKQIQRHGAGIIVVDSVYSTIGTIAPLRAIYEMAKEFDCGLVVDESHSLGTHGPEGSGLLQKLGLTQMVDFVTVSLAKTFAYRAGAILGPNKLAQSLPFVAYPAIFSSTVLPQEVVRLEKTLEVIKAADDKRECLFKRAKELAIGLKRIGFNIRSESQIIALECGSERNTERVRDFLEERDVFGAVFCRPATGRNKNIIRFSVNADMTAQQVDHVLSACQEAFDHPDLEFV”, the protein production entry is recorded as “not failed”.
Take “MCTPAADTRRGSPALASTARRGLLPARRNGPSARRGEALRSSTGRFVCWCRRRTASVDPSGFMPASFSIAGRLVDLHARAIRPATVHVQDGVIARIEPAETVPERHLLPGFIDAHVHVESAMLPPSEFARAAVRHGTVGTVSDPHEIANVLGVEGVEYMIADGRPVPFHFAFGAPSCVPATPFETSGAELGPDAVSALLDRDDVPYLSEMMDYPGAIDGAPNVLAKIRAAQVRDKPVDGHAPGLRGDDVAQYAAAGIETDHECVSIEEAREKLEAGMKIAIREGSAAKNFDELIPLMDEAPDRLMFCSDDRHPDALAEGHIDTLVRRALNRGYDRFDVLRAACVHPVEHYGLDVGLLREGDPADFIVVDDLDALNVQETYVEGALVAEEGETHIEHVASDVVNRFDAEPVAPADFRVPAGGDRLRVITAVDNQLGTGEEVVTTPTDDGYAVADPDRDVLKLAVVNRYTEESTPAVAFVRGFGLDGGALASSVAHDSHNVVAVGARDDALARAVNAVVRAEGGISAAAEGTQVLPLPIAGLMSDEPYDVVARRYTRLTDYVRAELGSAMDAPFMTLSFLSLLVIPQLKLSDRGLFDGAAFEFVDRFVD”: the protein production entry is “failed”.
Next, “MCYASMEMSAPIRFGTEGFRGVIAREFTFATLHRLAEAYGRHLLERGGGLVVVGHDTRFLADAFARALSGHLAGMGLKVVLLKGPVPTPLLSFAVRHLKAAGGAMLTASHNPPQYLGVKFKDATGGPIAQEEAKAIEALVPEEARALEGAYETLDLREAYFEALKAHLDLKALSGFSGVLYHDSMGGAGAGFLKGFLRHVGLEIPVRPIREEPHPLFHGVNPEPIPKNLGVTLAVLGPETPPSFAVATDGDADRVGVVLPGGVFFNPHQVLTTLALYRFRKGHRGRAVKNFAVTWLLDRLGERLGFGVTTTPVGFKWIKEEFLKGDCFIGGEESGGVGYPEHLPERDGILTSLLLLESVAATGKDLAEQFKEVEALTGLTHAYDRLDLPLKAPLDLTPFREPRPLAGLTPKGVDTLDGVKWLYEEAWVLFRASGTEPVVRIYVEAQSPELVRALLEEARKLVEG”: “not failed”; “MDAAHRHGVPVLGNIFLPPVAYGGQLQWTRDLVQKDATGHYPLAAQLVAVADAYGFDGWFVNAETSGGNTALATDMRGFLQELKALGTAKGQRVTWYDSMTATGSVSWQGALNSQNQAFFQAADSMFVDFRWSKSTLASSGTLAGQLGRSRYELWAGVDVESNGTSTSVNWDAIVPSASAHVVSLGFYRPEWTRNHLPANRTPGDFHAADDLFWTGASLDPAKPNTTASWRAPALRVADRSTVDSLPFATVFNTGHGLKWYEGGEVTSDTAWNHLGLQDRLPSRRWIVRTSGARPSVTFDFADAWRGGSSVLVAGTLGAPATLDLYETRLPVGSSETVVELTHRTDAGSAQIELAVATAEPSAPGQAPSYTYFPVSSGDGWGTSTVRLTGLSGTVRTLAVRLTGSGSPVRWRLGALAVKNAPAEPAAPTGLRVTDADGGSLRFSWQPAAGEVRHYELHRVLADGTRRFLGGTCQCAYYVAGLAAEQGESAARFELRAVGELYTESTATTTTHPW”: “failed”.
For “MDAKEVSAHWESNAETWTMLSRAGHDRYRDTLNTPAFLAMLPPVAGLKGLDLGCGEGTNTRTVARLGASMTGLDIAPTFLRHARDAERRDPLGIDYVLGDGLTLPFADRSFDFVTAFMSMMDMVDQAAVLREVARVLKPGGFLQFSILHPCFVPPTRRNIRDAEGAPVAVEVADYFDESDGRVERWLFSSISAEQQAALTPFAVPRFHRTLSTWVAMIVGARLSIEAFGEPRASEEVAAAEPIVADTRVAPIFLHVLAKRPTTP”, the protein production entry is listed as “failed”.
For the sequence “MDAMKYHDLRDFLTLLEQQGELKRITLPVDPHLEITEIADRTLRAGGPALLFENPKGYAMPVLCNLFGTPKRVAMGMGQDDVSALREVGKLLAFLKEPEPPKGFRDLFDKLPQFKQVLNMPTKRLRGAPCQQKIASGDDVDLTRLPVMTCWPDDAAPLITWGLTVTRGPHKERQNLGIYRQQLIGKNKLIMRWLSHRGGALDFQEWLAARPGERFPVSVALGADPATILGAVTPVPDTLSEYAFAGLLRGTKTEVVKCLSNDLEVPASAEIILEGYIEPGEMAPEGPYGDHTGYYNEVDSFPVFTVTHITQREDAIYHSTYTGRPPDEPAVLGVALNEVFVPILQKQFPEIVDFYLPPEGCSYRLAVVTMKKQYAGHAKRVMMGVWSFLRQFMYTKFVIVCDDDVNARDWNDVIWAITTRMDPARDTVLVENTPIDYLDFASPVSGLGSKMGLDATNKWPGETQREWGRPIVKDPEVTARIDAIWDELAIFKLEHHHHHH”, the protein production result was “not failed”.
Turning to “MDAPGPKPLRVARYWLYTGEHPARTTEVPVWNKLCLSVCCAILVLTASSCGADKSSDFLTEGRKLMDAGNAAGAVVLFRNALEKTPADYTLHLELGRAYIALGKLDLAEGELQKCLRQQPDDPPLNLALGELYVARNEPAKALPHLARYEQGAGETAVSRELAGLAHAQARSPEEARAALERSIALDAKRVTPRLALARLFLYRGDLKRAVATVDEALAVAPEDRLALTLRGDLLLRQGDAPGALVVFRKVASLAPGDDYARYMSGLLALQTGDEAGAAAVAASMNKDFKDNSLTLMLDGALAAQRKDYTLAASLFQRSVAMRPSLEGYYKLGMALYGKGDLETALSQFNRVLEATPEYDAARRMTVTILLAQRRVAEARQEAQKLVERNPSDAAAHFMLASAQMAAGDRAGAERSFEAGLALQPAHVPALLQLSRLKQADGRPDEALEDLKAAVVAAPDDLAVRNALFAYHLGRGDTGKGVQVVLEGLRGTPQDAILYTMLVPVYVNMGDEAKGLDAVAQAHRADPDFPDAYLAGLRLHAGAGRAEQALAESEAYLARKPDAPGFLLASGALLDLLGRTAEADARFDKALAANDPRVSFAVAERAVASGQDEKARRVLEEALRQHDQTTLRDALAIQLARMGKPDDALALYTAIETQRPREALLGRYRLLTHLDRHQEAADTARELGRRESASPLPVLLEAAAFERMGQRPQGVALLEAAHRKSGDPELLLAMGGMLERNGDEARAETCYRDALKARPDHVPTLLAYAGLDMRRKEYAKATALYEKAVSIAPDDVVALNNLAMAYLEKASRDATPQKALRLALQAYTRAPDNPAVLDTLGVCMMANGRADDAARAFGRAVVAVPGNPSLRYRHAEALFKAGRKDMAAEELRAALQTPDFPEAAKARDLLRKTGN”, the protein production entry was “failed”.
As for “MDATMHLFREKSSIGRLNLARVGLLDCIFGVRLNVEYKKTVEIFDCAGHNHRSGGIRNHRPTNSQGNSHKIKWKNLLLAPYTLVHVLVPPDLNKTCCDCGVYALKYIECHFMGLSLDMLDDVNIKDARLRIAVDLWKAAFDPVFIDRMTKYKPPKINSEIIDINLSVKLLKLNLIDNILEGPLSESITRSKTLLELDNMLEPNCI”, the entry is “failed”; as for “MDCRLKCTNQCTSLMMAFDKSHTIKGCSTEFSLSMTDTPILGTVKEPQRDYRTLDRQKLTPMFQHYTEVKEQYQGALLLYRVGDFFECFFQDAVIIARELELILTSKEGGKEIGRVAMTGVPHHALDRYARQLVEKGYAVAICDQVEDAAEAQAEKRMVERQVTKLLTPGTLTDDSMLPAKRNNFLAAIAMVEDKWGLAHADISTGEFFTCQSSNLDDLAVELLRLQPSEVLIPTSAPDIRNILRPGEPSEHIPKQLPTSFCYSLRSQAPFSLVEAKQRLLTTFRVKSLEGMGCEGLPLAIRAAGGLLEYIEDTQKAHVVPIQPLKTYGLTDFLVLDHQTRRNLEINQTVRDGSFHGSLLWALDRTSTTMGSRALRRWLLQPLLDLKGIQARQDTIQELYHHPALRQDLRQLLRQIYDLERLTGRIGANTASARDVYGLASSLVRLTDLAELAQEGHSPYLKALQTVPPELEELGKYVLAHIVENPPLHIREGNLIRSGVNPTLDEMRQSLEDDNQWLANLEVTEREKTGIANLKVGYNKAFGYYLSLPRSKSEQAPDNYIRKQTLVNEERYITPELKERETRILTAQADLNQLEYEIFTEVRATVAEKAQPIRDVAKAVAAIDVLAGLAEVAVYQGYCRPIMQMEPGLIDIEAGRHPVVEQSLGAGFFVANDTQLGHDHWHPDLVILTGPNASGKSCYLRQVGLIQLMAQTGSFIPAKTATLSICDRIFTRVGAVDDLATGQSTFMVEMNETANILNHATAKSLVLLDEIGRGTATFDGLAIAWSVAEYLAGEIQARTIFATHYHELNELASLLENVANFQVTVKELPEEIIFLHQVTPGGADKSYGIEAGRLAGLPSSVITRARQVMAQIEKHSKIAVGLRKGNRGKVMASQAAAEAAEDQAKQLDIFGF”, “failed”; as for “MDDGNENISMEVVEPEDAESDMSSDSGSDAEDDTAEPKAPKEVYLPGTKLADDEELVCDESAYVMLHQASTGAPCLSFDVIPDELGSGRQSFPMTAYIVAGTQASRAHVNNLIVMKMSNLHKTQDNDGDEDEELEDDQDDVTDREELKKPQMTCALVKHQGCVNRVRARRLGNSVYAASWSELGRVNIWDLTQPLQAVENAQLAKQYEQSEARPVFTFGGHQQEGFAIDWSPSADGVLATGDCRRDIHVWTPVEDGTWKVDQRPLAGHSQSVEDLQWSPNERSVLASCSVDKTIRIWDCRASPQKACMLTCEDAHQSDVNVISWNRNEPFIASGGDDGYLHIWDLRQFQSKKPIATFKHHTDHITTVEWSPAEATVLASGGDDDQIALWDLAVEKDIDQAVDPAQNEDVLNKLPPQLLFIHQGQKEIKELHWHPQLPGVLLSTAHSGFNIFRTISV”, “failed”.
